Data on eight molecules can be found in publication PMC4027202.

One series concerns the target T1, RVFV nucleoprotein N (Rift Valley fever virus, UniProt D3K5I7 1-245).
T1 sequence: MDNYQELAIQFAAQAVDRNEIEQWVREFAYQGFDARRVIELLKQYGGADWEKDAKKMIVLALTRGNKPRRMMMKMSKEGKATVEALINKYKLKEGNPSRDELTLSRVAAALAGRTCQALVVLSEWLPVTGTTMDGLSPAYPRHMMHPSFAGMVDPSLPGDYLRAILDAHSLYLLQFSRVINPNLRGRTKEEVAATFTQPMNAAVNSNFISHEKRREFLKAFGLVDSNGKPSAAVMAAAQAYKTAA
In words: ITC; n=0.70; main text gives 420 nM; ITC: 20 mM Tris pH 7.5, 150 mM NaCl, 8 C; […]. To be noted: protein: recombinant; single strand.

Series [1] addresses T2, Toscana virus nucleoprotein N (Toscana virus, UniProt P21701 1-253).
T2 sequence: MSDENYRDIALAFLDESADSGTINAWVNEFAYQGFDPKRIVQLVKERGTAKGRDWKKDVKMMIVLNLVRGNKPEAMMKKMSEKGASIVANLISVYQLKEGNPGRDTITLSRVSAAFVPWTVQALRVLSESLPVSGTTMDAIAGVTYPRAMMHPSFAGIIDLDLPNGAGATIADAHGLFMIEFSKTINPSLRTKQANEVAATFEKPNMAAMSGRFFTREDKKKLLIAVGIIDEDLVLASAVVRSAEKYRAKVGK
Nature of the series: ITC; n=0.49; ITC: 20 mM Tris pH 7.5, 150 mM NaCl, 8 C; 400 uM RNA titrated into 30 uM apo N. To be noted: protein: recombinant; tags: N-terminal His6; chain copies: 6; single strand.

The target in series [2] is T2, Toscana virus nucleoprotein N. In words: ITC; n=0.50; ITC: 20 mM Tris pH 7.5, 150 mM NaCl, 8 C; 400 uM RNA titrated into 30 uM apo N. To be noted: protein: recombinant; tags: N-terminal His6; chain copies: 6; single strand. In general terms: In ITC the heat of successive injections is recorded.
For series [3] the target is unchanged. In words: ITC; n=0.40; ITC: 20 mM Tris pH 7.5, 150 mM NaCl, 8 C; 400 uM RNA titrated into 30 uM apo N. To be noted: protein: recombinant; tags: N-terminal His6; chain copies: 6; single strand.
Series [4] concerns the molecule itself. Nature of the series: crystal structure; apo (RNA-free) N; 6.5% PEG 3350, 0.1-M sodium malonate, pH 4.5-5.2; space group P6, 12 molecules in the asymmetric unit, 3.3 Å.
Series [5] concerns the molecule itself. In words: crystal structure; N reconstituted with 9-mer RNA oligo1 (UGUGUUUCU); 11% PEG 3350, 0.1-M sodium malonate, pH 4.5-5.2; space group P1, 24 N and 12 RNA in the asymmetric unit, 2.6 Å.
Series [6] concerns the target T2, Toscana virus nucleoprotein N. In words: ITC; n=0.51; ITC: 20 mM Tris pH 7.5, 150 mM NaCl, 8 C; 400 uM RNA titrated into 30 uM apo N. The settings on record: protein: recombinant; tags: N-terminal His6; chain copies: 6; single strand.
Series [7] has the same target. Nature of the series: ITC; n=0.43; ITC: 20 mM Tris pH 7.5, 150 mM NaCl, 8 C; 400 uM RNA titrated into 30 uM apo N. To be noted: protein: recombinant; tags: N-terminal His6; chain copies: 6; single strand.
Series [8] shares this target. Nature of the series: ITC; n=0.52; ITC: 20 mM Tris pH 7.5, 150 mM NaCl, 8 C; 400 uM RNA titrated into 30 uM apo N. To be noted: protein: recombinant; tags: N-terminal His6; chain copies: 6; single strand.

As for UGUGUUUCU (ssRNA) [oligo1 (reverted 3' consensus 9-mer)], the Kd (as a rule, the concentration at which binding is half-saturated) with RVFV nucleoprotein N turned out to be 400 ± 100 nM; in [1] it was 260 ± 20 nM.
On to UGUGUU (ssRNA) [oligo8 (6-mer from oligo1)], for which, in series [2], the Kd is 8 ± 0.9 µM.
For UUUUUUUUU (ssRNA) [oligo5 (polyU 9-mer)], the Kd in series [3] worked out at 360 ± 40 nM.
As to UAUGUUUCU (ssRNA) [oligo4 (G2A mutant of oligo1)], the Kd in [1] is 290 ± 40 nM.

B1: Toscana virus nucleoprotein N (natural protein)
chain: MSDENYRDIALAFLDESADSGTINAWVNEFAYQGFDPKRIVQLVKERGTAKGRDWKKDVKMMIVLNLVRGNKPEAMMKKMSEKGASIVANLISVYQLKEGNPGRDTITLSRVSAAFVPWTVQALRVLSESLPVSGTTMDAIAGVTYPRAMMHPSFAGIIDLDLPNGAGATIADAHGLFMIEFSKTINPSLRTKQANEVAATFEKPNMAAMSGRFFTREDKKKLLIAVGIIDEDLVLASAVVRSAEKYRAKVGK
notes: Hexameric ring in both crystal forms
Regarding B1, the “stoichiometry N” value in [4] and in series [5] was 6 each time.
UGUGUUUC (ssRNA) [oligo6 (8-mer from oligo1)]: the Kd in series [6] amounted to 710 ± 30 nM.
Consider UCUUUGUGU (ssRNA) [oligo2 (3' genomic consensus)], for which, in [7], the Kd turned out to be 560 ± 70 nM.
As to UGUGUUU (ssRNA) [oligo7 (7-mer from oligo1)], in series [8], the Kd was 2700 ± 200 nM.
